Test results reported in patent US8415306B2, “Insulin-like growth factor 1 receptor binding peptides” (Janssen Biotech, Inc., priority 2010, dated 2013).

Assays:
sIGF1R [1] = molecular target: T1, sIGF1R (Homo sapiens, UniProt P08069); assay: ELISA relative binding affinity of PG-peptide fusions for sIGF1R; settings: for EC50: PG-peptide fusion, ELISA on 2 μg/ml coated sIGF1R, one site binding equation
T1 construct: hexahistidine (C); purchased R&D Systems
Excerpt: The identified IFG1R binding peptides were cloned in-frame to the C-terminus of the protein G IgG domain (PG) in a modified pET17b vector (EMD Chemicals, Gibbstown, N.J.) having a ligation independent cloning site (LIC) to generate PG-peptide fusions. The IgG binding domain of protein G is stable and thus enabled easy purification of the fusion protein from bacterial lysates. The amino acid sequence of the protein G IgG domain used is shown in SEQ ID NO: 31. The PG-peptide fusions were expressed in bacteria upon 1 mM IPTG induction and purified using IgG Sepharose beads (GE Healthcare Life Sciences, Piscataway, N.J.) from the bacterial lysates cleared by centrifugation at 16,000 g, 4° C. for 20 min.
(§1) Relative binding affinities of the PG-peptide fusions for sIGF1R were measured using ELISA. The Kds were determined using GraphPad Prism 4 software with a one site binding equation. 100 μl of 2 μg/ml sIGF1R(R&D Systems, Minneapolis, Minn.) in Dulbecco's Phosphate Buffer Saline (DPBS (−/−)) was coated onto a 96 well Black Maxisorp plates (Nunc, Rochester, N.Y.) overnight at 4° C. The plates were washed with TBST and the wells blocked with 200 μl/well Starting Block T20 (TBS) (Pierce, Rockford, Ill.) for 1 hr, room temperature with 300 rpm shaking. 75 μl/well of purified, serially diluted PG-peptide fusions, starting concentration 40 μM, was added into the wells and incubated for 1 h, room temperature with 300 rpm mixing; the volume was brought up to 100 μl with Starting Block T20. The plates were washed 3× with TBST and then probed with 100 μl/well Peroxidase labeled-Rabbit antibody (1:5000) (Rockland, Gilbertsville, Pa.), washed, and the signal was detected using 100 μl/well POD substrate (Roche, Indianapolis, Ind.). Chemiluminescence was detected using a Molecular Devices M5 plate reader.

insulin receptor = insulin receptor (Homo sapiens, UniProt P06213); assay: phage lysate binding to insulin receptor (cross-reactivity)
Protocol: Total of 384 individual phage lysates from the panning were tested for binding specificity towards sIGF1R in a solid phase phage ELISA. Briefly, 100 μl/well of 5 μg/ml sIGF1R (R&D Systems, Minneapolis, Minn.) was bound to Black Maxisorp Plates (Nunc, Rochester, N.Y.), 25 μl of phage lysate added, and the reaction was detected using anti-M13-HRP antibody (EMD Biosciences, Gibbstown, N.J.) and POD substrate (Roche, Indianapolis, Ind.), and the signal detected using a TEKAN plate reader. […] Positive lysates were defined as clones with a sIGF1R specific signal that was three fold above the background of the negative control. A total of 13 clones with unique peptide sequences were obtained with confirmed binding to the sIGF1R (Table 1). From these 13 clones, 3 (clones 5, 13 and 16) cross-reacted with the insulin receptor.

[2] = system: rat brain microvascular endothelial cell model; assay: in vitro BBB model, transcytosis of peptide-AP fusions; assay type: cell-based; settings: 25 μg peptide-AP fusion in top chamber, detected in bottom chamber at 15 and 30 minute by ELISA
Protocol: Select sIGF1R binding peptides were further characterized in the in vitro blood-brain barrier model, rat brain microvascular endothelial cell model.
Rat Brain capillary endothelial cells were prepared as described (Perriere et al., J. Neurochem. 93:279-289, 2005). Briefly, brains from 6-8 week old male Sprague Dawley rats were rolled on 3 MM chromatography paper to remove the meniges, cut sagitally, and the white matter dissected leaving the cortices, which were then minced thoroughly. The minced cortices were transferred to a 50 ml polypropylene conical tube with 20 ml DMEM supplemented with 39 units/ml DNase I (Worthington, Lakewood, N.J.) and 0.7 mg/ml Collagenase type 2 (Worthington, Lakewood, N.J.) at final concentration and incubated at 37° C. with gentle mixing for 1.25 hrs. After a brief centrifugation the resultant pellet was resuspended in 20 ml 20% BSA (Sigma, St. Louis, Mo.) in DMEM, centrifuged and the microvessel enriched pellet was isolated a digested a second time with 20 ml DMEM supplemented with 39 units/ml DNase 1 and 1 mg/ml Collagenase/Dispase (Roche, Indianapolis, Ind.) at 37° C. for 1 hr. The digestion was briefly centrifuged and the resulting cell pellet was resuspended in 2 ml DMEM and subsequently layered onto the top of a 33% continuous Percoll gradient, centrifuged, and the enriched microvessel fraction was removed and briefly centrifuged a second time. The cell pellet was resuspended in 10 ml complete rat brain microvascular endothelial cell growth media (DMEM, 20% Plasma Derived Serum (PDS), 100 μg/ml Heparin, 2 mM L-Glutamine, 100 U/ml penicillin, 100 μg/ml streptomycin, 0.25 μg/ml amphotericin) and plated onto a 10 cm tissue culture dish for 4 hrs at 37° C., 5% CO2. After 4 hrs cells that remained unattached were pipetted off and counted in a hemacytometer using Trypan Blue. The cells were plated into the top chamber of the Transwells (0.4 μm pore size, diameter 1.12 cm, Corning, Acton, Mass.) treated with 400 μg/ml collagen type IV (Sigma, St. Louis, Mo.) and 100 μg/ml fibronectin (Sigma, St. Louis, Mo.) at a density of 6×10^5 cells/ml, 500 μl per well. 1 ml of growth media was placed into the bottom chamber. Both chambers were supplemented with 4 μg/ml puromycin (Clontech, Mountain View, Calif.) and the plates were incubated at 37° C., 5% CO2 overnight. The next day the media was changed with fresh complete culture media with 4 μg/ml puromycin and the cells were placed back into the incubator overnight. The next day the media was changed with complete culture media and again two days after. Cultures were monitored by eye till they reached 100% confluence, ˜6-7 days after seeding. The developed in vitro BBB model had high transendothelial electrical resistance (>100 ohms-cm^2), measured using Millicell-ERS (Millipore, Billercia, Mass.) and very low Na-Fluorescein permeability (about 1-5×10^−6 cm/s).
25 μg of purified peptide-AP fusions were added to the top chamber of the in vitro BBB model and transcytosed peptide-AP fusions were detected at 15 and 30 minute timepoints in the bottom chamber using ELISA. Briefly, 75 μl of each sample was transferred to plates coated with 5 μg/ml mouse monoclonal anti-bacterial AP antibody (Sigma, St. Louis, Mo.). The plate was incubated for 1 hr, washed, the signal was developed with Attophos Substrate (Roche, Indianapolis, Ind.) according to manufacturer's recommendation, and read using a Molecular Devices M5 plate reader with 440 nm excitation and 550 nm emission.

sIGF1R [3] = molecular target: T1, sIGF1R; assay: competition ELISA of PG-peptide fusions with IGF-1 on sIGF1R; assay type: binding; settings: PG-peptide fusion, IGF-1 400 nM final
Protocol: as §1
For competition assays, insulin-like growth factor 1 (IGF-1) (R&D Systems, Minneapolis, Minn.) was added to the Starting Block T20 used to bring the volume up to 100 μl at a concentration of 400 nM final.

5 (TGCDFPELCRGCHP; IGF1R binding peptide from pIX library) [Clone 5]
EC50 (sIGF1R [1]): 750 nM | cross-reaction with the insulin receptor (insulin receptor): cross-reacted | Transcytosis [2]: yes

6 (AECEWPWLTLELCQS; IGF1R binding peptide from pIX library) [Clone 6]
EC50 (sIGF1R [1]): 1000 nM | Transcytosis [2]: yes

7 (PFCYSGGPLPYPCTY; IGF1R binding peptide from pIX library) [Clone 7]
EC50 (sIGF1R [1]): 1800 nM

8 (PVCPSFCYDQYVCPT; IGF1R binding peptide from pIX library) [Clone 8]
EC50 (sIGF1R [1]): 1600 nM | Transcytosis [2]: yes

9 (FTCAVYSLSELDCRD; IGF1R binding peptide from pIX library) [Clone 9]
EC50 (sIGF1R [1]): 3500 nM | Transcytosis [2]: no

10 (LSCYDPTLRTLYCHV; IGF1R binding peptide from pIX library) [Clone 10]
EC50 (sIGF1R [1]): 4300 nM

11 (HTCFYPTLMPPELCFD; IGF1R binding peptide from pIX library) [Clone 11]
Competed by IGF-1 (sIGF1R [3]): yes | EC50 (sIGF1R [1]): 1200 nM | Transcytosis [2]: no

12 (SNCPPLDMRLTELCVM; IGF1R binding peptide from pIX library) [Clone 12]
EC50 (sIGF1R [1]): 1800 nM | Transcytosis [2]: yes

13 (WHCTPLTQIADPGSIIHILECTV; IGF1R binding peptide from pIX library) [Clone 13]
Competed by IGF-1 (sIGF1R [3]): yes | EC50 (sIGF1R [1]): > 50000 nM | cross-reaction with the insulin receptor (insulin receptor): cross-reacted | Transcytosis [2]: no

14 (VECDTPSITFSPGLEALFWNTCSP; IGF1R binding peptide from pIX library) [Clone 14]
Competed by IGF-1 (sIGF1R [3]): yes | EC50 (sIGF1R [1]): 850 nM | Transcytosis [2]: no

15 (MTCAWHTLHTDPGLTPQLTLPCIY; IGF1R binding peptide from pIX library) [Clone 15]
EC50 (sIGF1R [1]): 2600 nM

16 (AGCPSPMPPVDPGFYSAIVQLCRE; IGF1R binding peptide from pIX library) [Clone 16]
Competed by IGF-1 (sIGF1R [3]): yes | EC50 (sIGF1R [1]): 8200 nM | cross-reaction with the insulin receptor (insulin receptor): cross-reacted | Transcytosis [2]: yes

17 (DDIDEFLHQLHNLVNNVH; IGF1R binding peptide from pIX library) [Clone 17]
Competed by IGF-1 (sIGF1R [3]): yes | binding curve shape (binding profile) (sIGF1R [1]; PG-peptide fusion on sIGF1R): bellshaped | Transcytosis [2]: no
